The values that follow are results of earlier work, collected in paper PMC11759867.

The target of the data set is MD2 (Homo sapiens) (UniProt Q9Y6Y9).
Chain of UniProt Q9Y6Y9 (Q9Y6Y9 19-160): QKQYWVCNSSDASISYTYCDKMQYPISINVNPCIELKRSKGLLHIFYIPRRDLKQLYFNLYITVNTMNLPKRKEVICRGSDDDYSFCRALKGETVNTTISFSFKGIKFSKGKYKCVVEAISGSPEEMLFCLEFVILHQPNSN

With CIRP 106-125 (from UniProt Q14011), the dissociation constant Kd (as a rule, a measure of binding affinity in units of concentration) was 0.302 µM.
